Eight sequences from the supplement of paper PMC11246515 can be followed below.

± gives the standard deviation of the averaged measurements.

This data set can be described thus: total protein half-life in vivo (active degradation + dilution); higher = more stable protein.
[1] abbreviates: E. coli NCM3722 delta-clpP delta-lon delta-hslV, growth: N-lim chemostat, doubling time 6 h.
Where [2] appears, read: E. coli NCM3722 delta-clpP, growth: N-lim chemostat, doubling time 6 h.
The mark [3] stands for this setting: E. coli NCM3722 delta-hslV, growth: N-lim chemostat, doubling time 6 h.
The mark [4] stands for this setting: E. coli NCM3722 delta-lon, growth: N-lim chemostat, doubling time 6 h.
[5] abbreviates: E. coli NCM3722 delta-smpB, growth: N-lim chemostat, doubling time 6 h.
Where [6] appears, read: wild type E. coli NCM3722, growth: C-lim chemostat, doubling time 3 h.
Where [7] appears, read: wild type E. coli NCM3722, growth: C-lim chemostat, doubling time 6 h.
The mark [8] stands for this setting: wild type E. coli NCM3722, growth: C-lim chemostat, doubling time 12 h.
Where [9] appears, read: wild type E. coli NCM3722, growth: N-lim chemostat, doubling time 6 h.
The mark [10] stands for this setting: wild type E. coli NCM3722, growth: N-lim chemostat, doubling time 12 h.
[11] abbreviates: wild type E. coli NCM3722, growth: P-lim chemostat, doubling time 6 h.
Setting [12] is: wild type E. coli NCM3722, growth: P-lim chemostat, doubling time 12 h.

For “MRYRIFLLFFFALLPTSLVWAAPAQRAFSDWQVTCNNQNFCVARNTGDHNGLVMTLSRSAGAHTDAVLRIERGGLKSPEASEGEIAPRLLLDGEPLALSGDKWRISPWLLVTDDTATITAFLQMIQEGKAITLRDGDQTISLSGLKAALLFIDAQQKRVGSETAWIKKGDEPPLSVPPAPALKEVAVVNPTPTPLSLEERNDLLDYGNWRMNGLRCSLDPLRREVNVTALTDDKALMMISCEAGAYNTIDLAWIVSRKKPLASRPVRLRLPFNNGQETNELELMNATFDEKSRELVTLAKGRGLSDCGIQARWRFDGQRFRLVRYAAEPTCDNWHGPDAWPTLWITR”, the “total protein half-life in vivo” value was found to be 4.79 ± 0.75 h under setting [1]; 5.182 ± 0.02 h under setting [2]; 6.05 ± 0.37 h under setting [3]; 5.51 ± 0.2 h under setting [4]; 5.55 ± 0.54 h under setting [5]; 3.44 ± 0.45 h under setting [6]. In addition, the “total protein half-life in vivo” value by setting is: under setting [7], 5.86 ± 1.1 h; under setting [8], 10.4 ± 2 h; under setting [9], 5.2 ± 0.56 h; under setting [10], 12.9 ± 3.8 h; under setting [11], 4.81 ± 0.49 h; under setting [12], 9.92 ± 0.41 h.

“MLIIKRSVAIIAILFSPLSTASNLTSQLHNFFSAQLAGVSDEVRVSIRTAPNLLPPCEQPLLSMSNNSRLWGNVNVLARCGNDKRYLQVNVQATGNYVVAAMPIARGGKLEAGNVKLKRGRLDTLPPRTVLDINQLVDAISLRDLSPDQPIQLTQFRQAWRVKAGQRVNVIASGDGFSANAEGQALNNAAVAQNARVRMVSGQVVSGVVDADGNILINL”: the “total protein half-life in vivo” value was 0.905 ± 0.37 h under setting [6] and 2.23 h under setting [8].

Take “MTDKMQSLALAPVGNLDSYIRAANAWPMLSADEERALAEKLHYHGDLEAAKTLILSHLRFVVHIARNYAGYGLPQADLIQEGNIGLMKAVRRFNPEVGVRLVSFAVHWIKAEIHEYVLRNWRIVKVATTKAQRKLFFNLRKTKQRLGWFNQDEVEMVARELGVTSKDVREMESRMAAQDMTFDLSSDDDSDSQPMAPVLYLQDKSSNFADGIEDDNWEEQAANRLTDAMQGLDERSQDIIRARWLDEDNKSTLQELADRYGVSAERVRQLEKNAMKKLRAAIEA [P0AGB3]”: the “total protein half-life in vivo” value under setting [1] was 0.775 ± 0.044 h and the “total protein half-life in vivo” value under setting [12] was found to be 0.858 h.

With “MGSPSLYSARKTTLALAVALSFAWQAPVFAHGGEAHMVPMDKTLKEFGADVQWDDYAQLFTLIKDGAYVKVKPGAQTAIVNGQPLALQVPVVMKDNKAWVSDTFINDVFQSGLDQTFQVEKRPHPLNALTADEIKQAVEIVKASADFKPNTRFTEISLLPPDKEAVWAFALENKPVDQPRKADVIMLDGKHIIEAVVDLQNNKLLSWQPIKDAHGMVLLDDFASVQNIINNSEEFAAAVKKRGITDAKKVITTPLTVGYFDGKDGLKQDARLLKVISYLDVGDGNYWAHPIENLVAVVDLEQKKIVKIEEGPVVPVPMTARPFDGRDRVAPAVKPMQIIEPEGKNYTITGDMIHWRNWDFHLSMNSRVGPMISTVTYNDNGTKRKVMYEGSLGGMIVPYGDPDIGWYFKAYLDSGDYGMGTLTSPIARGKDAPSNAVLLNETIADYTGVPMEIPRAIAVFERYAGPEYKHQEMGQPNVSTERRELVVRWISTVGNYDYIFDWIFHENGTIGIDAGATGIEAVKGVKAKTMHDETAKDDTRYGTLIDHNIVGTTHQHIYNFRLDLDVDGENNSLVAMDPVVKPNTAGGPRTSTMQVNQYNIGNEQDAAQKFDPGTIRLLSNPNKENRMGNPVSYQIIPYAGGTHPVAKGAQFAPDEWIYHRLSFMDKQLWVTRYHPGERFPEGKYPNRSTHDTGLGQYSKDNESLDNTDAVVWMTTGTTHVARAEEWPIMPTEWVHTLLKPWNFFDETPTLGALKKDK”, the “total protein half-life in vivo” value is, setting by setting: under setting [1], 4.75 h; under setting [5], 5.04 ± 0.69 h; under setting [6], 2.69 h; under setting [7], 6.4 ± 0.067 h; under setting [8], 6.83 h; under setting [10], 11.8 h. The “total protein half-life in vivo” value under setting [12] amounted to 11.1 ± 0.71 h.

As for “MQIIFGEKCVSLLRLFFAAVLMLWCAQTAAYSGQCHTTQGNPYIGVNFGVKTLEEEANTAGVVKDKFYQWNESNDYYVSCDCDKDNVRSGRWAFAADSPLVYLGDNWYKINDYLAAKVLLQVKGSSPTAVPFENVGTGGDTRWHICDPGGQRLGGQGASGNSGSFSLKILQPFVGSVVIPPMALARLYECYNIPAGDSCTTTGTPVLVYYLSGTINSLGSCSVNAGETIEVDLGDVFAANFRVVGHKPLGARTAELAIPVRCNTGNAGLVNVNLSLTATTDPSYPQAIKTSRPGVGVVVTDSQNNIISPAGGTLPLSIPDDADSIARMNVYPVSTTGVPPETGRFEATATVRINFD”, the “total protein half-life in vivo” value was found to be 5.52 ± 2.1 h under setting [1]; 4.19 h under setting [2]; 5.902 ± 0.037 h under setting [3]; 6.21 ± 1.1 h under setting [4]; 5.24 ± 0.2 h under setting [5]; 5.54 ± 0.6 h under setting [7]. For the same sequence, the “total protein half-life in vivo” value is, setting by setting: under setting [8], 9.76 h; under setting [9], 7.57 h; under setting [10], 11.6 ± 0.54 h; under setting [11], 6 h; under setting [12], 12 ± 1.1 h.

Consider “MKFIGKLLLYILIALLVAIAGLYFLLQTRWGAEHISAWVSENSDYHLAFGAMDHRFSAPSHIVLENVTFGRDGQPATLVAKSVDIALSSRQLTEPRHVDTILLENGTLNLTDQTAPLPFKADRLQLRDMAFNSPNSEWKLSAQRVNGGVVPWSPKAGKVLGTKAQIQFSAGSLSLNDVPATNVLIEGSIDNDRVTLTNLGADIARGTLTGNAQRNADGSWQVENLRMADIRLQSEKSLTDFFAPLRSVPSLQIGRLEVIDARLQGPDWAVTDLDLSLRNMTFSKDDWQTQEGKLSMNASEFIYGSLHLFDPIINTEFSPQGVALRQFTSRWEGGMVRTSGNWLRDGKTLILDDAAIAGLEYTLPKNWQQLWMETTPGWLNSLQLKRFSASRNLIIDIDPDFPWQLTALDGYGANLTLVTDHKWGVWSGSANLNAAAATFNRVDVRRPSLALTANSSTVNISELSAFTEKGILEATASVSQTPQRQTHISLNGRGVPVNILQQWGWPELPLTGDGNIQLTASGDIQANVPLKPTVSGQLHAVNAAKQQVTQTMNAGIVSSGEVTSTEPVR”, for which the “total protein half-life in vivo” value under setting [1] was found to be 6.81 ± 0.67 h; the “total protein half-life in vivo” value under setting [2] amounted to 6.85 ± 0.84 h; the “total protein half-life in vivo” value under setting [3] was 6.19 ± 0.067 h; the “total protein half-life in vivo” value under setting [4] came out at 6.3 ± 0.072 h; the “total protein half-life in vivo” value under setting [5] was 6.28 ± 0.42 h; the “total protein half-life in vivo” value under setting [6] worked out at 3.2 ± 0.15 h. Besides, the “total protein half-life in vivo” value reads like this: under setting [7], 5.9 ± 0.12 h; under setting [8], 11.4 ± 1 h; under setting [9], 6.16 ± 0.12 h; under setting [10], 12.6 ± 0.84 h; under setting [11], 6.26 ± 0.23 h; under setting [12], 12 ± 0.2 h.

For the sequence “MSAKHPVIAVTGSSGAGTTTTSLAFRKIFAQLNLHAAEVEGDSFHRYTRPEMDMAIRKARDAGRHISYFGPEANDFGLLEQTFIEYGQSGKGKSRKYLHTYDEAVPWNQVPGTFTPWQPLPEPTDVLFYEGLHGGVVTPQHNVAQHVDLLVGVVPIVNLEWIQKLIRDTSERGHSREAVMDSVVRSMEDYINYITPQFSRTHLNFQRVPTVDTSNPFAAKGIPSLDESFVVIHFRNLEGIDFPWLLAMLQGSFISHINTLVVPGGKMGLAMELIMLPLVQRLMEGKKIE [P0AEX5]”, the “total protein half-life in vivo” value worked out at 5.45 ± 0.28 h under setting [1]; 5.4 ± 0.23 h under setting [2]; 4.95 ± 0.67 h under setting [3]; 4.68 ± 1.1 h under setting [4]; 5.185 ± 0.032 h under setting [5]; 2.96 ± 0.14 h under setting [6]. Also, the “total protein half-life in vivo” value was 5.5 ± 0.22 h under setting [7]; 11.8 ± 3.6 h under setting [8]; 5.42 ± 0.28 h under setting [9]; 10.9 ± 2.4 h under setting [10]; 6.156 ± 0.01 h under setting [11]; 12.4 ± 2.5 h under setting [12].

In the case of “MCGIVGIAGVMPVNQSIYDALTVLQHRGQDAAGIITIDANNCFRLRKANGLVSDVFEARHMQRLQGNMGIGHVRYPTAGSSSASEAQPFYVNSPYGITLAHNGNLTNAHELRKKLFEEKRRHINTTSDSEILLNIFASELDNFRHYPLEADNIFAAIAATNRLIRGAYACVAMIIGHGMVAFRDPNGIRPLVLGKRDIDENRTEYMVASESVALDTLGFDFLRDVAPGEAIYITEEGQLFTRQCADNPVSNPCLFEYVYFARPDSFIDKISVYSARVNMGTKLGEKIAREWEDLDIDVVIPIPETSCDIALEIARILGKPYRQGFVKNRYVGRTFIMPGQQLRRKSVRRKLNANRAEFRDKNVLLVDDSIVRGTTSEQIIEMAREAGAKKVYLASAAPEIRFPNVYGIDMPSATELIAHGREVDEIRQIIGADGLIFQDLNDLIDAVRAENPDIQQFECSVFNGVYVTKDVDQGYLDFLDTLRNDDAKAVQRQNEVENLEMHNEG [P0AG16]”, the “total protein half-life in vivo” value runs as follows: under setting [1], 5.35 ± 1.5 h; under setting [2], 4.19 ± 0.24 h; under setting [3], 2.31 ± 0.34 h; under setting [4], 2.37 ± 0.23 h; under setting [5], 2.13 ± 0.17 h; under setting [6], 2.301 ± 0.0058 h. Moreover, the “total protein half-life in vivo” value runs as follows: under setting [7], 4.01 ± 0.4 h; under setting [8], 5.59 ± 0.33 h; under setting [9], 2.25 ± 0.18 h; under setting [10], 2.8937 ± 0.00088 h; under setting [11], 3.6 ± 0.23 h; under setting [12], 6.17 ± 0.076 h.
